The target of series [1] is synthetic FliF_(495–532) peptide of Thermotoga maritima FliF (Thermotoga maritima). Kind of series: other fluorescence titration.
Series [2] concerns the target synthetic FliF_(512–532) peptide of Thermotoga maritima FliF (Thermotoga maritima). Kind of series: other fluorescence titration.
The series “SEC-MALS” deals with the molecule itself. Kind of series: SEC-MALS. Background: SEC sorts molecules by how far they enter the pores of the column.
A further series concerns full-length FliG. Briefly: Size-exclusion chromatography / light scattering, full-length FliG. Conditions: SEC / static light scattering / refractive index; ~1 mg/mL, 25 mM Tris, 200 mM NaCl, 0.5 mM EDTA, pH 7.4. It is filed as physicochemical, T. maritima.

B1: Thermotoga maritima FliG N-terminal domain construct, residues 1–102 (FliGN) (domain or fragment, UniProt Q9WY63 1-102, looked up)
chain: MPEKKIDGRRKAAVLLVALGPEKAAQVMKHLDEETVEQLVVEIANIGRVTPEEKKQVLEEFLSLAKAKEMISEGGIEYAKKVLEKAFGPERARKIIERLTSS
modifications: 15N, 2H (and 13C) isotope labelling in the NMR experiments
The stoichiometry N is the number of molecules, sites or subunits per partner or assembly. The term Kd denotes a measure of binding affinity in units of concentration. Low values mean a tighter complex, high ones a looser complex. As for B1, the results for the stoichiometry N (in series [1]; in “SEC-MALS”) were 1 and 2, respectively. Moreover, the Kd in series [2] was determined as 84 nM.

B2: full-length Thermotoga maritima FliG (FliGNMC) (natural protein, UniProt Q9WY63 1-335, looked up)
chain: MPEKKIDGRRKAAVLLVALGPEKAAQVMKHLDEETVEQLVVEIANIGRVTPEEKKQVLEEFLSLAKAKEMISEGGIEYAKKVLEKAFGPERARKIIERLTSSLQVKPFSFVRDTDPVQLVNFLQSEHPQTIAVVLSYLDPPVAAQILGALPEELQTEVLKRIALLERTSPEVVKEIERNLEKKISGFVSRTFSKVGGIDTAAEIMNNLDRTTEKKIMDKLVQENPELADEIRRRMFVFEDILKLDDRSIQLVLREVDTRDLALALKGASDELKEKIFKNMSKRAAALLKDELEYMGPVRLKDVEEAQQKIINIIRRLEEAGEIVIARGGGEELIM
For the molecule B2, in “SEC-MALS”, the “stoichiometry N” value is 2.

B3: full-length FliG: full-length T. maritima FliGNMC, including a N-terminal 6X-His tag (protein)
chain: B2 chain
modifications: left off: 6X-His, N-terminal, state not stated
With B3, in the series on full-length FliG, the “Calculated Mw of full-length FliG, absence of peptide” value is “≈ 79 kD” and the “Oligomeric state of full-length FliG, absence of peptide” value is on record as “tight dimer”.

(Values after PMC3384689 (Biochemistry, 2012).)
